We go through 23 molecules from PMC10786891, “Massively parallel profiling of RNA-targeting CRISPR-Cas13d”.

Sequences and labels used below:
T1: EsCas13d, nuclease-dead (Eubacterium siraeum, UniProt B0MS50, R295A;H300A;R849A;H854A)
T1 sequence: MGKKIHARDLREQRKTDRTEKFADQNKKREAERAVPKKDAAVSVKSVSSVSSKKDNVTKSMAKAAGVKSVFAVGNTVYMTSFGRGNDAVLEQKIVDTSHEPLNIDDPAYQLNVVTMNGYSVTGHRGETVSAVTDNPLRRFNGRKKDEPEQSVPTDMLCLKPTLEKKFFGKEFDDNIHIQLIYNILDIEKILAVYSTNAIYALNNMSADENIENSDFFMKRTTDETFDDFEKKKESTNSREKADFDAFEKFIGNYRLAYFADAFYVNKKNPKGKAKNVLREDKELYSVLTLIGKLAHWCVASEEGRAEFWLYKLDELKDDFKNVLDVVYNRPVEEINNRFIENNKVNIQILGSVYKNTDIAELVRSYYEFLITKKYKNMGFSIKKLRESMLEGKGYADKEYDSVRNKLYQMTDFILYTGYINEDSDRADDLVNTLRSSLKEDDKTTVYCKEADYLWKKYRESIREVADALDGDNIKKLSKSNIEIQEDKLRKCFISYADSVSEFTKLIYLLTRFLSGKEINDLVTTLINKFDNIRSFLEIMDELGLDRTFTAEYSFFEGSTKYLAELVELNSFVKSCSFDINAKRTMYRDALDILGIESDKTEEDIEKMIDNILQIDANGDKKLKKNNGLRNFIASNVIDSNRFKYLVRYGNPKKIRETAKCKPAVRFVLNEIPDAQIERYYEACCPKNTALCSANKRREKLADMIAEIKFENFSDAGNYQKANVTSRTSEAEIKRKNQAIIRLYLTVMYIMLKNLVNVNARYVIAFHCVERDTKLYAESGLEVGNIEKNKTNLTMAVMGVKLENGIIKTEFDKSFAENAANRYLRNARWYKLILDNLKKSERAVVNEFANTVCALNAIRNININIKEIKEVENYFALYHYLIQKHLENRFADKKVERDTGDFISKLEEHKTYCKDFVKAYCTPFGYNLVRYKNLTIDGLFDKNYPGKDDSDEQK

B1: target 1 insA 3' of 4,insU 3' of 1 (mixed)
RNA 1: CACCCGUGCAAAAAUGCAGGGGUCUAAAACUGAGCGGAUAACCUCUCUAUGG
RNA 2: GGGAAUGGAUCCACAUCUACGAAUUCGUACCAUAGAGAGGUUAUCCGCAUCAUCCGAGAUCGGAAGAGCACACGU
B2: target 1 insA 3' of 15,insU 3' of 1 (mixed)
RNA 1: CACCCGUGCAAAAAUGCAGGGGUCUAAAACUGAGCGGAUAACCUCUCUAUGG
RNA 2: GGGAAUGGAUCCACAUCUACGAAUUCGUACCAUAGAGAAGGUUAUCCGCUCAUCCGAGAUCGGAAGAGCACACGU
B3: target 1 del7,del9 (mixed)
RNA 1: CACCCGUGCAAAAAUGCAGGGGUCUAAAACUGAGCGGAUAACCUCUCUAUGG
RNA 2: GGGAAUGGAUCCACAUCUACGAAUUCGUACCAUAGAGAGGUUUCGCUCACCGAGAUCGGAAGAGCACACGU
B4: target 1 C7G,A9U (mixed)
RNA 1: CACCCGUGCAAAAAUGCAGGGGUCUAAAACUGAGCGGAUAACCUCUCUAUGG
RNA 2: GGGAAUGGAUCCACAUCUACGAAUUCGUACCAUAGAGAGGUUUUGCGCUCACCGAGAUCGGAAGAGCACACGU
B5: target 1 C7U,G12C (mixed)
RNA 1: CACCCGUGCAAAAAUGCAGGGGUCUAAAACUGAGCGGAUAACCUCUCUAUGG
RNA 2: GGGAAUGGAUCCACAUCUACGAAUUCGUACCAUAGAGAGCUUAUUCGCUCACCGAGAUCGGAAGAGCACACGU
B6: target 1 insA 3' of 4,insC 3' of 1 (mixed)
RNA 1: CACCCGUGCAAAAAUGCAGGGGUCUAAAACUGAGCGGAUAACCUCUCUAUGG
RNA 2: GGGAAUGGAUCCACAUCUACGAAUUCGUACCAUAGAGAGGUUAUCCGCAUCACCCGAGAUCGGAAGAGCACACGU
B7: target 1 U11A,G12A (mixed)
RNA 1: CACCCGUGCAAAAAUGCAGGGGUCUAAAACUGAGCGGAUAACCUCUCUAUGG
RNA 2: GGGAAUGGAUCCACAUCUACGAAUUCGUACCAUAGAGAGAAUAUCCGCUCACCGAGAUCGGAAGAGCACACGU
B8: target 1 insA 3' of 15,insG 3' of 1 (mixed)
RNA 1: CACCCGUGCAAAAAUGCAGGGGUCUAAAACUGAGCGGAUAACCUCUCUAUGG
RNA 2: GGGAAUGGAUCCACAUCUACGAAUUCGUACCAUAGAGAAGGUUAUCCGCUCAGCCGAGAUCGGAAGAGCACACGU
B9: target 1 insA 3' of 15,insA 3' of 2 (mixed)
RNA 1: CACCCGUGCAAAAAUGCAGGGGUCUAAAACUGAGCGGAUAACCUCUCUAUGG
RNA 2: GGGAAUGGAUCCACAUCUACGAAUUCGUACCAUAGAGAAGGUUAUCCGCUCAACCGAGAUCGGAAGAGCACACGU
B10: target 1 U3G,C21A (mixed)
RNA 1: CACCCGUGCAAAAAUGCAGGGGUCUAAAACUGAGCGGAUAACCUCUCUAUGG
RNA 2: GGGAAUGGAUCCACAUCUACGAAUUCGUACAAUAGAGAGGUUAUCCGCGCACCGAGAUCGGAAGAGCACACGU
B11: target 1 insG 3' of 6,insA 3' of 4 (mixed)
RNA 1: CACCCGUGCAAAAAUGCAGGGGUCUAAAACUGAGCGGAUAACCUCUCUAUGG
RNA 2: GGGAAUGGAUCCACAUCUACGAAUUCGUACCAUAGAGAGGUUAUCCGGCAUCACCGAGAUCGGAAGAGCACACGU
B12: target 1 insC 3' of 22,insG 3' of 14 (mixed)
RNA 1: CACCCGUGCAAAAAUGCAGGGGUCUAAAACUGAGCGGAUAACCUCUCUAUGG
RNA 2: GGGAAUGGAUCCACAUCUACGAAUUCGUACCCAUAGAGAGGGUUAUCCGCUCACCGAGAUCGGAAGAGCACACGU
B13: target 1 A14G,A16C (mixed)
RNA 1: CACCCGUGCAAAAAUGCAGGGGUCUAAAACUGAGCGGAUAACCUCUCUAUGG
RNA 2: GGGAAUGGAUCCACAUCUACGAAUUCGUACCAUAGCGGGGUUAUCCGCUCACCGAGAUCGGAAGAGCACACGU
B14: target 1 U10G,G12A (mixed)
RNA 1: CACCCGUGCAAAAAUGCAGGGGUCUAAAACUGAGCGGAUAACCUCUCUAUGG
RNA 2: GGGAAUGGAUCCACAUCUACGAAUUCGUACCAUAGAGAGAUGAUCCGCUCACCGAGAUCGGAAGAGCACACGU
B15: target 1 insA 3' of 4,insA 3' of 2 (mixed)
RNA 1: CACCCGUGCAAAAAUGCAGGGGUCUAAAACUGAGCGGAUAACCUCUCUAUGG
RNA 2: GGGAAUGGAUCCACAUCUACGAAUUCGUACCAUAGAGAGGUUAUCCGCAUCAACCGAGAUCGGAAGAGCACACGU
B16: target 1 insA 3' of 22,insC 3' of 1 (mixed)
RNA 1: CACCCGUGCAAAAAUGCAGGGGUCUAAAACUGAGCGGAUAACCUCUCUAUGG
RNA 2: GGGAAUGGAUCCACAUCUACGAAUUCGUACACAUAGAGAGGUUAUCCGCUCACCCGAGAUCGGAAGAGCACACGU
B17: target 1 insG 3' of 11,insA 3' of 10 (mixed)
RNA 1: CACCCGUGCAAAAAUGCAGGGGUCUAAAACUGAGCGGAUAACCUCUCUAUGG
RNA 2: GGGAAUGGAUCCACAUCUACGAAUUCGUACCAUAGAGAGGUGUAAUCCGCUCACCGAGAUCGGAAGAGCACACGU
B18: target 1 insC 3' of 14,insU 3' of 4 (mixed)
RNA 1: CACCCGUGCAAAAAUGCAGGGGUCUAAAACUGAGCGGAUAACCUCUCUAUGG
RNA 2: GGGAAUGGAUCCACAUCUACGAAUUCGUACCAUAGAGACGGUUAUCCGCUUCACCGAGAUCGGAAGAGCACACGU
B19: target 1 C6G,A16G (mixed)
RNA 1: CACCCGUGCAAAAAUGCAGGGGUCUAAAACUGAGCGGAUAACCUCUCUAUGG
RNA 2: GGGAAUGGAUCCACAUCUACGAAUUCGUACCAUAGGGAGGUUAUCGGCUCACCGAGAUCGGAAGAGCACACGU
B20: target 1 insA 3' of 22,insA 3' of 2 (mixed)
RNA 1: CACCCGUGCAAAAAUGCAGGGGUCUAAAACUGAGCGGAUAACCUCUCUAUGG
RNA 2: GGGAAUGGAUCCACAUCUACGAAUUCGUACACAUAGAGAGGUUAUCCGCUCAACCGAGAUCGGAAGAGCACACGU
B21: target 1 insA 3' of 15,insC 3' of 1 (mixed)
RNA 1: CACCCGUGCAAAAAUGCAGGGGUCUAAAACUGAGCGGAUAACCUCUCUAUGG
RNA 2: GGGAAUGGAUCCACAUCUACGAAUUCGUACCAUAGAGAAGGUUAUCCGCUCACCCGAGAUCGGAAGAGCACACGU
B22: target 1 C7G,G17U (mixed)
RNA 1: CACCCGUGCAAAAAUGCAGGGGUCUAAAACUGAGCGGAUAACCUCUCUAUGG
RNA 2: GGGAAUGGAUCCACAUCUACGAAUUCGUACCAUAUAGAGGUUAUGCGCUCACCGAGAUCGGAAGAGCACACGU
B23: target 1 U8C,G17C (mixed)
RNA 1: CACCCGUGCAAAAAUGCAGGGGUCUAAAACUGAGCGGAUAACCUCUCUAUGG
RNA 2: GGGAAUGGAUCCACAUCUACGAAUUCGUACCAUACAGAGGUUACCCGCUCACCGAGAUCGGAAGAGCACACGU

Broadly, the Kd is the free concentration of one partner at which half of the binding sites on the other are occupied at equilibrium, for simple one-to-one binding. A high value points to a looser complex.

In this data set the target is T1, EsCas13d, nuclease-dead. In words: crRNA (strand 1, pre-loaded); Mg2+; 40 mM Tris-HCl pH 7.5, 150 mM NaCl, 6 mM MgCl2, 1 mM DTT, 0.1% Tween-20, 0.2 mg/ml BSA; 25 C; 10 min per concentration, then washed. Conditions: tags: His6-TwinStrep-SUMO cleaved; N-terminal SNAP kept (SNAP-Surface 488); label: 3' end held by stalled T7 RNA polymerase.
B1 gave a Kd of 7 ± 0.6 nM.

Take B2: the Kd is 6.7 ± 0.7 nM.

The molecule B3 had a Kd of 12.3 ± 0.9 nM.

B4 registered a dissociation constant (Kd) of 7.61 ± 0.27 nM.

Molecule B5 displayed a Kd of 9.7 ± 0.7 nM.

The molecule B6 showed a Kd of 18.9 ± 3.3 nM. This Kd is about 1.9-fold higher than that of the molecule before.

B7 gave a Kd of 4 ± 0.29 nM.

Regarding B8, the Kd came out at 5.96 ± 0.32 nM.

B9 returned a Kd of 6.4 ± 0.4 nM.

B10 returned a Kd of 41 ± 14 nM.

Molecule B11 returned a Kd of 6.9 ± 0.4 nM.

Regarding B12, the Kd was 47 ± 5 nM. Against the preceding molecule, the Kd is about 6.8-fold higher.

With B13, the affinity, expressed as Kd, was 67 ± 11 nM.

In the case of B14, binding was characterised by a dissociation constant (Kd) of 32.9 ± 2.7 nM.

B15 came in with a Kd of 6.2 ± 0.5 nM.

B16 gave a dissociation constant (Kd) of 12.8 ± 0.8 nM.

In the case of B17, the Kd turned out to be 21.5 ± 2.4 nM.

For the molecule B18, binding was characterised by a dissociation constant (Kd) of 43 ± 4 nM. This Kd lies about 2-fold higher than the previous one.

Take B19: binding was characterised by a dissociation constant (Kd) of 31.8 ± 1.6 nM.

Molecule B20 showed a dissociation constant Kd of 12.7 ± 0.5 nM.

The molecule B21 came in with an equilibrium dissociation constant (Kd) of 7.1 ± 0.8 nM. Compared with the last molecule, the Kd is about 1.8-fold lower.

The molecule B22 had a dissociation constant Kd of 35 ± 5 nM.

B23 came in with a Kd of 90 ± 32 nM.
